According to patent CN107973850A:

Columns and labels:
[1] = molecular target: CHO细胞表达的CSFV石门株E2蛋白 (classical swine fever virus, Shimen strain)
[2] = molecular target: CSFV感染细胞的E2蛋白 (CSFV石门株病毒的E2蛋白) (classical swine fever virus, Shimen strain); experiment: cell-based or functional assay

B1: 重组猪瘟病毒E2蛋白猪源化单克隆抗体rHQ06 Sw (antibody, V domains shown)
VH: QVQLQQSGGGLVQPKGSLKLSCAASGFTFNNNAMDWVRQAPGKGLEWVARIRTKSNYYATSYADSVKDRFTISRDDSQSMLYLQMNNLKTEDTAIYFCVREGYYAWFAYWGQGTLVTVSA
VL: DIVLTQTPSSLAVSIGEKVTMSCKSSQSLLYSRNQKNYLAWYQQKPGQFPKLLIYWASTRESGVPDRFTGSGSGTDFTLTISSVKAEDLAVYYCQQYYSYPYTFGGGTKLEIKR
B1 was tested, and the Kd [1] was 13.1 nM, the kon [1] was 98400 M⁻¹ s⁻¹ and the 中和效价 (病毒中和试验, IFA) [2] was 12.
